These are literature values, as cited in US7214519B2, “Screening method for identifying heme independent modulators of soluble guanylyl cyclase (sGC) activity using αβCys105 mutant sGC” (Board of Regents of the University of Texas System, priority 2003, dated 2007).

Like-named read-outs stand apart in the source and are kept apart here.

The target of this series is T1, αβ^Phe105 sGC (Bos taurus, UniProt P16068+P19687, H105F).
T1 sequence (P16068 1-619 H105F): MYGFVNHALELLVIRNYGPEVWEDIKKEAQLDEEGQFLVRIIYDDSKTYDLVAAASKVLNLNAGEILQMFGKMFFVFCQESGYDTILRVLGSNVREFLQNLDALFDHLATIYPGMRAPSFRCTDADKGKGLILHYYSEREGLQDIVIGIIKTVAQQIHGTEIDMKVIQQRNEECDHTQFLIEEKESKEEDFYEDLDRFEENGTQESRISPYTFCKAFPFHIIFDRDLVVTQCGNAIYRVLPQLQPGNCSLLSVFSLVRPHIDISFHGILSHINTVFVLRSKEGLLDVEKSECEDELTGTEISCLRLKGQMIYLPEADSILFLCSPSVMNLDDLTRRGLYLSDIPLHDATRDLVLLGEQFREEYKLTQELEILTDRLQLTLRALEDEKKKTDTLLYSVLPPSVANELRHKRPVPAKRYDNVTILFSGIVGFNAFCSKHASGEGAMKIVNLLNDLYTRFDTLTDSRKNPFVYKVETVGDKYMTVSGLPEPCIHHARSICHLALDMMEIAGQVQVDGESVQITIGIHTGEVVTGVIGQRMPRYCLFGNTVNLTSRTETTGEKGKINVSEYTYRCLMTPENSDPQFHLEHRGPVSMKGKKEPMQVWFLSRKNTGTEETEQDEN
T1 sequence (P19687 1-691): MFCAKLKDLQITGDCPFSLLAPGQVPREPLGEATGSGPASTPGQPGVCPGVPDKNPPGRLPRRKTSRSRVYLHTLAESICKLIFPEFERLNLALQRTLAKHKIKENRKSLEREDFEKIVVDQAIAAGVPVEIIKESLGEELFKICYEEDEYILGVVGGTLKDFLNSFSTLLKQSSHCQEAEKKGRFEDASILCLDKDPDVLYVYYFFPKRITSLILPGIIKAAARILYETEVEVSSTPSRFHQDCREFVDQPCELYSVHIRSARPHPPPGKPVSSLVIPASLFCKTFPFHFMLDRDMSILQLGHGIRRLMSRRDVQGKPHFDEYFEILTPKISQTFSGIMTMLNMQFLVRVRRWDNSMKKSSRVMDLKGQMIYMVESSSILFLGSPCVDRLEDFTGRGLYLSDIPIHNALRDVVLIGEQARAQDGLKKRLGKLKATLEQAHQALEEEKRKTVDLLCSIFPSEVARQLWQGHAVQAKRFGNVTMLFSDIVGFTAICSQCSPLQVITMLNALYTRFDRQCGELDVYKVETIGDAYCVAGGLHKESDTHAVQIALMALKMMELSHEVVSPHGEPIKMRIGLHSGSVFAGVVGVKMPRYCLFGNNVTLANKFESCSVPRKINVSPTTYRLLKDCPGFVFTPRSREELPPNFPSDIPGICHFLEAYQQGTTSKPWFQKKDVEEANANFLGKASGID
As to conditions: cited from earlier work; for Specific activity: with DTT.

B1: αβ^Phe105: bovine sGC with βHis105→Phe substitution, from the literature (40) (protein, UniProt P19687 1-691; P16068 1-619, looked up, variant H105F)
Guanylate cyclase soluble … 1: T1 sequence (P19687 1-691)
Guanylate cyclase soluble … 2: T1 sequence (P16068 1-619 H105F)
modifications: mutation in beta subunit
Regarding B1, the basal activity result is given as “about 40 nmol/min/mg”. In addition, the Specific activity (+NO) is 0.11 ± 0.03 µmol/min/mg. For the same molecule, where the note is “Basal”, the Specific activity is 0.04 ± 0.03 µmol/min/mg.
